Measured values taken from PMC11638070.

Target: mitochondrial heat shock protein 60, wild type (mtHsp60) (human), P10809
Assay: SEC; analytical SEC of each protein alone (mtHsp60 samples 17 µM monomer); Superdex 200 Increase 3.2/300, room temperature, 20 mM HEPES pH 7.5, 100 mM KCl, 10 mM MgCl2
Settings: remark: other sources report otherwise

B1: mitochondrial heat shock protein 60, wild type (mtHsp60), P10809 27-573 (natural protein)
chain: AKDVKFGADARALMLQGVDLLADAVAVTMGPKGRTVIIEQSWGSPKVTKDGVTVAKSIDLKDKYKNIGAKLVQDVANNTNEEAGDGTTTATVLARSIAKEGFEKISKGANPVEIRRGVMLAVDAVIAELKKQSKPVTTPEEIAQVATISANGDKEIGNIISDAMKKVGRKGVITVKDGKTLNDELEIIEGMKFDRGYISPYFINTSKGQKCEFQDAYVLLSEKKISSIQSIVPALEIANAHRKPLVIIAEDVDGEALSTLVLNRLKVGLQVVAVKAPGFGDNRKNQLKDMAIATGGAVFGEEGLTLNLEDVQPHDLGKVGEVIVTKDDAMLLKGKGDKAQIEKRIQEIIEQLDVTTSEYEKEKLNERLAKLSDGVAVLKVGGTSDVEVNEKKDRVTDALNATRAAVEEGIVLGGGCALLRCIPALDSLTPANEDQKIGIEIIKRTLKIPAMTIAKNAGVEGSLIVEKIMQSSSEVGYDAMAGDFVNMVEKGIIDPTKVVRTALLDAAGVASLLTTAEVVVTEIPKEEKDPGMGAMGGMGGGMGGGMF
For B1, the stoichiometry N was 7.
